Assay results taken from IntAct's records for PubMed 15020407.

B1: High osmolarity signaling protein SHO1 (Saccharomyces cerevisiae), P40073 (parent)
chain: MSISSKIRPTPRKPSRMATDHSFKMKKFYADPFAISSISLAIVSWVIAIGGSISSASTNESFPRFTWWGIVYQFLIICSLMLFYCFDLVDHYRIFITTSIAVAFVYNTNSATNLVYADGPKKAAASAGVILLSIINLIWILYYGGDNASPTNRWIDSFSIKGIRPSPLENSLHRARRRGNRNTTPYQNNVYNDAIRDSGYATQFDGYPQQQPSHTNYVSSTALAGFENTQPNTSEAVNLHLNTLQQRINSASNAKETNDNSNNQTNTNIGNTFDTDFSNGNTETTMGDTLGLYSDIGDDNFIYKAKALYPYDADDDDAYEISFEQNEILQVSDIEGRWWKARRANGETGIIPSNYVQLIDGPEEMHR
partner: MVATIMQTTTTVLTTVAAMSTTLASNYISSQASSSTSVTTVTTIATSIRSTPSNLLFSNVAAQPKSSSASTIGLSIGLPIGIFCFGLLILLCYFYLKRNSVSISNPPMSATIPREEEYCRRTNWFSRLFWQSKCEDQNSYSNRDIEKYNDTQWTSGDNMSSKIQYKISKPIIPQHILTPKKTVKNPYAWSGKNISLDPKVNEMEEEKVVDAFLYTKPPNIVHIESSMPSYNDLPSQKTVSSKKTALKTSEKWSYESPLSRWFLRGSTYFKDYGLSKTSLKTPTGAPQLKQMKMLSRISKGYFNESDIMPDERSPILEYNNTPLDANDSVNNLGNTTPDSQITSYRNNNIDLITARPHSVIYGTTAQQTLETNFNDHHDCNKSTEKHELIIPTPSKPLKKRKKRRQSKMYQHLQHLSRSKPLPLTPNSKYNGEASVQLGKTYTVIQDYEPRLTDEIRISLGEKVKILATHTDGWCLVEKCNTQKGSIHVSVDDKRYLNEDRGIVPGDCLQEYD

Variants of: B1
Details: with fus1_yeast FUS1, P11710

Row | Variant | effect of a mutation on the interaction
1 | P352A | decreasing interaction
